# Publication PMC4807281, “Glutathionylation of the Bacterial Hsp70 Chaperone DnaK Provides a Link between Oxidative Stress and the Heat Shock Response” (The Journal of Biological Chemistry, 2016)
# Target: Cys15 (UniProt position 15, GTTNSCVAIMD)
# Assay: UV-vis
# Details: 25 °C; 100 mM KCl, 5 mM MgCl2 (plus KOH added during titration); Buffer B: 50 mM Tris-HCl, pH 7.5, 100 mM KCl, 5 mM MgCl2. The pH was raised by stepwise addition of 6 N KOH in Buffer B.; Reduced (free thiol) DnaK with no nucleotide or peptide added (apo state), 15 μM protein
substance,measurement,value
Chaperone protein DnaK (Hsp70) (Escherichia coli),pKa,about 12
